According to patent publication US20230324404A1 (Takeda / Millennium, published 2023):
Like-named read-outs stand apart in the source and are kept apart here.

How the values were obtained:
[1] = target: T1, DENV1 VLP (strain Puerto Rico/US/BID-V853/1998) (Dengue virus serotype 1 strain Puerto …); assay: microsphere immunoassay, DENV1 VLP-coupled microspheres
T1 construct: also called dengue-1 virus like particle

[2] = target: T2, DENV2 VLP (strain Thailand/16681/84) (Dengue virus serotype 2 strain …); assay: microsphere immunoassay, DENV2 VLP-coupled microspheres
T2 construct: also called dengue-2 virus like particle

[3] = target: T3, DENV3 VLP (strain Sri Lanka D3/H/IMTSSA-SRI/2000/1266) (Dengue virus serotype 3 strain Sri …); assay: microsphere immunoassay, DENV3 VLP-coupled microspheres
T3 construct: also called dengue-3 virus like particle

[4] = target: T4, DENV4 VLP (strain Dominica/814669/1981) (Dengue virus serotype 4 strain …, UniProt P09866 114-732); assay: microsphere immunoassay, DENV4 VLP-coupled microspheres
T4 construct: also called dengue-4 virus like particle

[5] = target: T5, ZIKV VLP (zika virus like particle, isolate Z1106033) (Zika virus isolate Z1106033 (Suriname, …, UniProt A0A024B7W1 123-794))
T5 construct: also called zika VLP; ZIKV VLPs

[6] = target: T5, ZIKV VLP (zika virus like particle, …); remark: listed apart in the source
[7] = target: T5, ZIKV VLP (zika virus like particle, …); remark: listed apart in the source
[8] = target: T1, DENV1 VLP (strain Puerto …); assay: microsphere immunoassay, DENV1 VLP-coupled microspheres, 120 min incubation
[9] = target: T2, DENV2 VLP (strain Thailand/16681/84); assay: microsphere immunoassay, DENV2 VLP-coupled microspheres, 120 min incubation
[10] = target: T3, DENV3 VLP (strain Sri Lanka …); assay: microsphere immunoassay, DENV3 VLP-coupled microspheres, 120 min incubation
[11] = target: T4, DENV4 VLP (strain Dominica/814669/1981); assay: microsphere immunoassay, DENV4 VLP-coupled microspheres, 120 min incubation

Row | Binder | binding result [1] | binding result [2] | binding result [3] | binding result [4] | EC50 [5] [µg/mL] | EC50 [6] [µg/mL] | EC25 [7] [µg/mL] | EC50 [7] [µg/mL] | binding result [8] | binding result [9] | binding result [10] | binding result [11]
1 | Anti-ZIKV #5 (Clone 306-2) (antibody, V domains shown) VH: QSLEESGGDLVKPGASLTLTCTASGFDFSDRYYMCWVRQAPGKGLEWIGCIYVGSGDTYYASWAKGRFTISRTSSTTVTLQMTRLTAADTATYFCARHPGTYFTLWGPGTLVTVSS VL: DVVMTQTPSSVSAAVGGTVTINCQASQNIVNNLAWYQQRPGQPPKLLIYDTSTLASGVPSRFKGSGSGTEFTLTISDLECADAATYYCQTYYYYNKIINGFGGGTEVVVKG | no binding (tested: 0.001 to 20 µg/mL) | no binding (tested: 0.001 to 20 µg/mL) | no binding (tested: 0.001 to 20 µg/mL) | no binding (tested: 0.001 to 20 µg/mL) | 0.256 | 0.066 | 0.0047 | 0.0158 | – | – | – | –
2 | Anti-ZIKV #6 (IgG2c kappa, Clone ZV-67) (antibody, V domains shown) VH: QAQLQQSGTGLARPGASVKLSCKASGYTFTSYGISWVTQRAGQGLEWIGVIYPRSGNTYYNEKFRGKATLTADKSSSSAYMELRGLTAEDSAVYFCARENYGSVYWGQGTTLTVSS VL: DIVMTQSQKFMSTSVGDRVSITCKASQNVGTAVAWYQQKPGQSPKLLIYSASNRYTGVPDRFTGSGSGTDFTLTISNMQSEDLADYFCQQFSSYPYTFGGGTKLEIK | no binding (tested: 0.001 to 20 µg/mL) | no binding (tested: 0.001 to 20 µg/mL) | no binding (tested: 0.001 to 20 µg/mL) | no binding (tested: 0.001 to 20 µg/mL) | 0.677 | 0.134 | 0.0081 | 0.0273 | – | – | – | –
3 | Anti-ZIKV #7 (IgG2a kappa, Clone ZKA-64) (antibody, V domains shown) VH: QVQLVQSGAEVKKPGASVKVSCKASGYTFTGYHIDWVRQARGQGLEWMGRINPNSGGTNYAQKFQGRVTMTRDTSISTAYMQLSRLRSDDSAVYYCARMSSSIWGFDHWGQGTLVTVSS VL: EIVMTQSPATLSVSPGERATLSCRASQSVLINLAWYQQKPGQAPRLLIYGASSRATGIPARFSGSGSGTEFTLTISSLQSEDFAVYYCQQYNDWPPITFGQGTRLEIK | no binding (tested: 0.001 to 20 µg/mL) | no binding (tested: 0.001 to 20 µg/mL) | no binding (tested: 0.001 to 20 µg/mL) | no binding (tested: 0.001 to 20 µg/mL) | 1.18 | 0.423 | 0.0296 | 0.101 | – | – | – | –
4 | Anti-ZIKV #9 (Clone 181-4) (antibody) heavy: QAQLEESGGDLVKPEGSLTLTCTASGFSFTDRHYMCWVRQAPGKGLEWIACVYPGSSGSTYYASWARGRFTISKTSSTTVTLRMTSLTAADTATYFCARSSYPDSSGYSYGMDLWGPGTLVTVSSGQPKAPSVFPLAPCCGDTPSSTVTLGCLVKGYLPEPVTVTWNSGTLTNGVRTFPSVRQSSGLYSLSSVVSVTSSSQPVTCNVAHPATNTKVDKTVAPSTCSKPTCPPPELLGGPSVFIFPPKPKDTLMISRTPEVTCVVVDVSQDDPEVQFTWYINNEQVRTARPPLREQQFNSTIRVVSTLPIAHQDWLRGKEFKCKVHNKALPAPIEKTISKARGQPLEPKVYTMGPPREELSSRSVSLTCMINGFYPSDISVEWEKNGKAEDNYKTTPAVLDSDGSYFLYSKLSVPTSEWQRGDVFTCSVMHEALHNHYTQKSISRSPGK light: DIVMTQTPASVEAAVGGTVTIKCQASQNINSNLAWYQQKPGQRPKFLMYLTSKLASGVPSRFRGSGSGTQFTLTISDLECADAATYYCQTYYDISNYGYAFGGGTEVVVKGDPVAPTVLIFPPAADQVATGTVTIVCVANKYFPDVTVTWEVDGTTQTTGIENSKTPQNSADCTYNLSSTLTLTSTQYNSHKEYTCKVTQGTTSVVQSFNRGDC | – | – | – | – | – | – | 0.0059 | 0.0156 | no binding (tested: 0.001 to 20 µg/mL) | no binding (tested: 0.001 to 20 µg/mL) | no binding (tested: 0.001 to 20 µg/mL) | no binding (tested: 0.001 to 20 µg/mL)
5 | Anti-ZIKV #10 (Clone 329-2) (antibody) heavy: QAQLEESGGDLVKPEGSLTLTCTASGFSFTDRHYMCWVRQAPGKGLEWIACVYPGSSGSTYYASWARGRFTISKTSSTTVTLRMTSLTAADTATYFCARSSYPDSSGYSYGMDLWGPGTLVTVSSGQPKAPSVFPLAPCCGDTPSSTVTLGCLVKGYLPEPVTVTWNSGTLTNGVRTFPSVRQSSGLYSLSSVVSVTSSSQPVTCNVAHPATNTKVDKTVAPSTCSKPTCPPPELLGGPSVFIFPPKPKDTLMISRTPEVTCVVVDVSQDDPEVQFTWYINNEQVRTARPPLREQQFNSTIRVVSTLPIAHQDWLRGKEFKCKVHNKALPAPIEKTISKARGQPLEPKVYTMGPPREELSSRSVSLTCMINGFYPSDISVEWEKNGKAEDNYKTTPAVLDSDGSYFLYSKLSVPTSEWQRGDVFTCSVMHEALHNHYTQKSISRSPGK light: DIVMTQTPASVEAAVGGTVTIKCQASQNINSNLAWYQQKPGQRPKFLMYLTSKLASGVPSRFRGSGSGTQFTLTISDLECADAATYYCQTYYDISNYGYAFGGGTEVVVKGDPVAPTVLIFPPAADQVATGTVTIVCVANKYFPDVTVTWEVDGTTQTTGIENSKTPQNSADCTYNLSSTLTLTSTQYNSHKEYTCKVTQGTTSVVQSFNRGDC | – | – | – | – | – | – | 0.0043 | 0.0145 | no binding (tested: 0.001 to 20 µg/mL) | no binding (tested: 0.001 to 20 µg/mL) | no binding (tested: 0.001 to 20 µg/mL) | no binding (tested: 0.001 to 20 µg/mL)
6 | Anti-ZIKV #8 (Clone 260-2) (antibody) heavy: QAQLEESGGDLVKPEGSLTLTCTASGFSFTDRHYMCWVRQAPGKGLEWIACVYPGSSGSTYYASWARGRFTISKTSSTTVTLRMTSLTAADTATYFCARSSYPDSSGYSYGMDLWGPGTLVTVPSGQPKAPSVFPLAPCCGDTPSSTVTLGCLVKGYLPEPVTVTWNSGTLTNGVRTFPSVRQSSGLYSLSSVVSVTSSSQPVTCNVAHPATNTKVDKTVAPSTCSKPTCPPPELLGGPSVFIFPPKPKDTLMISRTPEVTCVVVDVSQDDPEVQFTWYINNEQVRTARPPLREQQFNSTIRVVSTLPIAHQDWLRGKEFKCKVHNKALPAPIEKTISKARGQPLEPKVYTMGPPREELSSRSVSLTCMINGFYPSDISVEWEKNGKAEDNYKTTPAVLDSDGSYFLYSKLSVPTSEWQRGDVFTCSVMHEALHNHYTQKSISRSPGK light: DIVMTQTPASVEAAVGGTVTIKCQASQNINSNLAWYQQKPGQRPKFLMYLTSKLASGVPSRFRGSGSGTQFTLTISDLECADAATYYCQTYYDISNYGYAFGGGTEVVVKGDPVAPTVLIFPPAADQVATGTVTIVCVANKYFPDVTVTWEVDGTTQTTGIENSKTPQNSADCTYNLSSTLTLTSTQYNSHKEYTCKVTQGTTSVVQSFNRGDC | – | – | – | – | – | – | 0.0075 | 0.0252 | no binding (tested: 0.001 to 20 µg/mL) | no binding (tested: 0.001 to 20 µg/mL) | no binding (tested: 0.001 to 20 µg/mL) | no binding (tested: 0.001 to 20 µg/mL)
7 | Anti-ZIKV #2 (Clone 242-3) (antibody, V domains shown) VH: QAQLEESGGDLVKPEGSLTLTCTASGFSFTDRHYMCWIRQAPGKGLEWIACVYPGSSGSTYYASWARGRFTISKTSSTTVTLRMTSLTAADTATYFCARSSYPDSSGYSYGMDLWGPGTLVTVSS VL: DIVMTQTPASVEAAVGGTVTIKCQASQNINSNLAWYQQKPGQRPKFLMYLTSKLASGVPSRFRGSGSGTQFTLTISDLECADAATYYCQTYYDISNYGYAFGGGTEVVVKG | no binding (tested: 0.001 to 20 µg/mL) | no binding (tested: 0.001 to 20 µg/mL) | no binding (tested: 0.001 to 20 µg/mL) | no binding (tested: 0.001 to 20 µg/mL) | 0.14 | 0.044 | 0.0024 | 0.008 | – | – | – | –
8 | Anti-ZIKV #3 (Clone 270-12) (antibody, V domains shown) VH: QAQLEESGGDLVKPEGSLTLTCTASGFSFTDRHYMCWVRQAPGKGLEWIACVYPGSSGSTYYASWARGRFTISKTSSTTVTLRMTSLTAADTATYFCARSSYPDSSGYSYGMDLWGPGTLVTVSS VL: DIVMTQTPASVEAAVGGTVTIKCQASQDINSNLAWYQQKPGQRPKFLMYLTSKLASGVPSRFRGSGSGTQFTLTISDLECADAATYYCQTYYDISNYGYAFGGGTEVVVKG | no binding (tested: 0.001 to 20 µg/mL) | no binding (tested: 0.001 to 20 µg/mL) | no binding (tested: 0.001 to 20 µg/mL) | no binding (tested: 0.001 to 20 µg/mL) | 0.181 | 0.061 | 0.0045 | 0.0144 | – | – | – | –
